Series [1] has as its target T1, mjCgi121 (Methanocaldococcus jannaschii, UniProt Q57646 1-145).
T1 sequence: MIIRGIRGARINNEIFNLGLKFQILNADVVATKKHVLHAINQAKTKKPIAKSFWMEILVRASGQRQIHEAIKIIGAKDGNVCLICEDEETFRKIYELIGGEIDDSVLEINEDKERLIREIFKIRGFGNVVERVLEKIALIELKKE
Put plainly: competition; displacement of 32P-tRNA, filter binding, 5 uM protein; 20 mM HEPES pH 7.5, 100 mM NaCl, 2 mM DTT; filter binding 50 nM 32P-tRNA, 1 h, room temperature; FP 50 nM 647-CCA; NMR 25 C with 10% D2O. The note with it: protein: recombinant; tags: GST removed by TEV; single strand.

The target of another series is T2, mjBud32 (Methanocaldococcus jannaschii, UniProt Q58530 333-535).
T2 sequence: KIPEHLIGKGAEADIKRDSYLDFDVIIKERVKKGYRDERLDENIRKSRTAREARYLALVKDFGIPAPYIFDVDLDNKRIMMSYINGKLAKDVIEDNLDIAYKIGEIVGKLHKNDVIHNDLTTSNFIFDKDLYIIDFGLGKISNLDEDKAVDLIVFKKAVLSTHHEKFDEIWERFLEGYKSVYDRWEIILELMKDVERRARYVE
In words: fluorescence polarization; 20 mM HEPES pH 7.5, 100 mM NaCl, 2 mM DTT; filter binding 50 nM 32P-tRNA, 1 h, room temperature; FP 50 nM 647-CCA; NMR 25 C with 10% D2O. The note with it: protein: recombinant; tags: His6 removed by TEV; label: 5' Alexa-647; single strand.

The next series addresses TPRKB;PRPK;OSGEP;LAGE3 (Homo sapiens;Homo sapiens;Homo …, UniProt Q9Y3C4;Q96S44;Q9NPF4;Q14657 1-175;1-253;1-335;1-143, |||). The description is as above. The note with it: protein: recombinant;recombinant;recombinant;recombinant; tags: GST removed by TEV;GST-His6 removed by TEV;;His; copies: 1;1;1;1; label: 5' Alexa-647; single strand.
The next series concerns the target TPRKB;PRPK (Homo sapiens;Homo sapiens, UniProt Q9Y3C4;Q96S44 1-175;1-253, |). Described as above. Particulars: protein: recombinant;recombinant; tags: GST removed by TEV;GST-His6 removed by TEV; copies: 1;1; label: 5' Alexa-647; single strand.
The target in series [2] is T1, mjCgi121. The series is described as above. Particulars: protein: recombinant; tags: GST removed by TEV; label: 5' Alexa-647; single strand.
In the next series the target is T3, mjKae1 (Methanocaldococcus jannaschii, UniProt Q58530 1-332).
T3 sequence: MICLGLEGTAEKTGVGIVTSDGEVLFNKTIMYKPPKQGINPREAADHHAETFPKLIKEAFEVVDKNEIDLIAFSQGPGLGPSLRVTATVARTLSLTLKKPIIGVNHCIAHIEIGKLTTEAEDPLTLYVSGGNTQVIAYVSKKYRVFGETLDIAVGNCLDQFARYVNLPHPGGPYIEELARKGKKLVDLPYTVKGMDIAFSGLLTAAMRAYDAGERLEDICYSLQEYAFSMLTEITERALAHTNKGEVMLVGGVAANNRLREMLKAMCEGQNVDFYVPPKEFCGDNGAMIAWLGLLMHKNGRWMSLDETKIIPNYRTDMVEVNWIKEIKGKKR
Described as above. Particulars: protein: recombinant; tags: GST removed by TEV; label: 5' Alexa-647; single strand.

Another series has as its target scQri7 (Saccharomyces cerevisiae, UniProt P43122 30-407). The series is described as above. The note with it: protein: recombinant; tags: His6 removed by TEV; label: 5' Alexa-647; single strand.
Another series addresses T4, mjCgi121;mjBud32;mjKae1 (Methanocaldococcus …, UniProt Q57646;Q58530;Q58530 1-145;333-535;1-332, ||).
T4 sequence 1: T1 sequence
T4 sequence 2: T2 sequence
T4 sequence 3: T3 sequence
The description is as above. The note with it: protein: recombinant;recombinant;recombinant; tags: GST removed by TEV;His6 removed by TEV;GST removed by TEV; copies: 1;1;1; label: 5' Alexa-647; single strand.

Another series concerns the target TPRKB (Homo sapiens, UniProt Q9Y3C4 1-175). The description is as above. The note with it: protein: recombinant; tags: GST removed by TEV; label: 5' Alexa-647; single strand.
In a further series the target is T5, mjCgi121;mjBud32 (Methanocaldococcus …, UniProt Q57646;Q58530 1-145;333-535, |).
T5 sequence 1: T1 sequence
T5 sequence 2: T2 sequence
The description is as above. Particulars: protein: recombinant;recombinant; tags: GST removed by TEV;His6 removed by TEV; copies: 1;1; label: 5' Alexa-647; single strand.

For three molecules, binding result and Kd results are on record in publication PMC7718258, “A substrate binding model for the KEOPS tRNA modifying complex”.

Chain of scQri7 (P43122 30-407): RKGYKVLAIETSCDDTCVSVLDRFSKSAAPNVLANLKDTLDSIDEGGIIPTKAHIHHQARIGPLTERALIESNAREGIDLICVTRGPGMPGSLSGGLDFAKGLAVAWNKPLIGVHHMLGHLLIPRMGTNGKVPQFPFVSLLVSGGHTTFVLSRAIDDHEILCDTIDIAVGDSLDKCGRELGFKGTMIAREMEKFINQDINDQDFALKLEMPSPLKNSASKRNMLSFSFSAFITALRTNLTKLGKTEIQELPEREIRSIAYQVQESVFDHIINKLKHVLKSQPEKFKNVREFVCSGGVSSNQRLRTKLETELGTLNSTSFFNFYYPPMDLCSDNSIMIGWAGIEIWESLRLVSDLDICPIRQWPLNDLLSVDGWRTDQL

B1: CCA-oligo (ssRNA)
RNA: CCCGCCA
On to B1, for which the binding result with mjCgi121 [1] is given as “binds”.

B2: 647-CCA (ssRNA)
RNA: CCGCCA
Take B2: the binding result in the series with mjBud32, with mjKae1 and in the series with scQri7 was “no binding” each time. Further, the Kd in the series with TPRKB;PRPK;OSGEP;LAGE3 worked out at 4300 nM; in the series with TPRKB;PRPK, 450 nM; with mjCgi121 [2], 730 nM; in the series with mjCgi121;mjBud32;mjKae1, 153 nM; in the series with TPRKB, 28000 nM; with mjCgi121;mjBud32, 229 nM.

B3: inverted oligo (ssRNA)
RNA: ACCGCCC
On to B3, for which, in the series with mjCgi121 [1], the binding result is “no binding”.
